T1: Human BCMA (human, UniProt Q02223 1-54, limits assumed)
T1 construct: Soluble analyte in SPR; construct not described; also called huBCMA; B-cell maturation antigen
T1 sequence (looked up): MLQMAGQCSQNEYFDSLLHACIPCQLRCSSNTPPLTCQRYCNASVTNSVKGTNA

T2: Human BCMA (human, UniProt Q02223 1-54, limits assumed)
T2 construct: also called huBCMA; B-cell maturation antigen
T2 sequence (looked up): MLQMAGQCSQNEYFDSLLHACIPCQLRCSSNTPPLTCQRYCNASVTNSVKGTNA


Assays:
[1] = biological target: T1, Human BCMA; assay: SPR, IgG immobilised, 37 C
Experimental: (§1) All experiments were performed on a Bio-Rad Proteon XPR36 surface Plasmon resonance biosensor (Bio-Rad, Hercules, Calif.). […] The analysis temperature for the immobilization was 25° C. and the running buffer was HBS-T+(10 mM HEPES, 150 mM NaCl, 0.05% Tween-20, pH 7.4). Channels were activated in the analyte (horizontal) direction by injecting a mixture of 1 mM ECD and 0.25 mM NHS for 3 minutes at a flow rate of 30 μL/min. IgGs were immobilized on the activated spots by injecting them in the ligand (vertical) direction at 20 μg/mL in 10 mM Acetate pH 4.5 buffer for 1.5 minutes at […]. The activated surfaces were blocked by injecting 1M ethanolamine, pH 8.5 in the analyte direction for 3 minutes at 30 μL/min.
(§2) The analysis temperature for the BCMA binding analysis was 37° C. or 25° C. in a running buffer of HBS-T+, supplemented with 1 mg/mL BSA. A kinetic titration method was employed for the interaction analysis as described in Abdiche, et al. Human BCMA (huBCMA) or cynomolgus monkey BCMA (cyBCMA) analyte was injected in the analyte direction using a series of injections from low to high concentration. The concentrations used were 0.08 nM, 0.4 nM, 2 nM, 10 nM and 50 nM (a 5-membered series, with a 5-fold dilution factor and top concentration of 50 nM). The association time for a given analyte dilution was two minutes. Immediately after the 50 nM BCMA injection, dissociation was monitored for 2 hours.
(§3) The sensorgrams were double-referenced and fit to a 1:1 Langmuir with mass transport kinetic titration model in BIAevaluation Software version 4.1.1 (GE Lifesciences, Piscataway, N.J.).

[2] = biological target: T3, Cynomolgus monkey BCMA (cynomolgus monkey); assay: SPR, IgG immobilised, cyno BCMA analyte
T3 construct: Soluble analyte in SPR; also called cyBCMA; Cyno BCMA
Experimental: as §1, §2, §3

[3] = biological target: T2, Human BCMA; assay: SPR, IgG immobilised, human BCMA analyte
Experimental: as §1, §2, §3

Binder | Kd [1] [nM] | T ½ [1] [min] | koff [1] [s⁻¹] | kon [1] [M⁻¹ s⁻¹] | Kd [2] [nM] | koff [2] [s⁻¹] | kon [2] [M⁻¹ s⁻¹] | Kd [3] [nM] | koff [3] [s⁻¹] | kon [3] [M⁻¹ s⁻¹]
L3.PY/L3.KY/H2.LT (antibody, V domains shown, IgG) VH: EVQLLESGGGLVQPGGSLRLSCAASGFTFGSYAMTWVRQAPGKGLEWVSAISLTGGNTFYADSVKGRFTISRDNSKNTLYLQMNSLRAEDTAVYYCARVSPIASGMDYWGQGTLVTVSS VL: EIVLTQSPGTLSLSPGERATLSCRASQSVSSSYLAWYQQKPGQAPRLLIYGASSRATGIPDRFSGSGSGTDFTLTISRLEPEDFAVYYCKYYPYPPSFTFGQGTKVEIK | 0.31 | 12.8 | 0.000906 | 2.92e+06 |  |  |  |  |  | 
L3.PY/L3.KY/H3.TAQ (antibody, V domains shown, IgG) VH: EVQLLESGGGLVQPGGSLRLSCAASGFTFGSYAMTWVRQAPGKGLEWVSAISGSGGNTFYADSVKGRFTISRDNSKNTLYLQMNSLRAEDTAVYYCTRVSPIAAQMDYWGQGTLVTVSS VL: EIVLTQSPGTLSLSPGERATLSCRASQSVSSSYLAWYQQKPGQAPRLLIYGASSRATGIPDRFSGSGSGTDFTLTISRLEPEDFAVYYCKYYPYPPSFTFGQGTKVEIK | 0.23 | 17.8 | 0.000649 | 2.79e+06 |  |  |  |  |  | 
L3.PY/L3.KY/H2.QR (antibody, V domains shown, IgG) VH: EVQLLESGGGLVQPGGSLRLSCAASGFTFGSYAMTWVRQAPGKGLEWVSAISGSGGNTFYADQRKGRFTISRDNSKNTLYLQMNSLRAEDTAVYYCARVSPIASGMDYWGQGTLVTVSS VL: EIVLTQSPGTLSLSPGERATLSCRASQSVSSSYLAWYQQKPGQAPRLLIYGASSRATGIPDRFSGSGSGTDFTLTISRLEPEDFAVYYCKYYPYPPSFTFGQGTKVEIK | 0.34 | 11.7 | 0.00099 | 2.95e+06 |  |  |  |  |  | 
L3.PY/L3.KY/H3.YA (antibody, V domains shown, IgG) VH: EVQLLESGGGLVQPGGSLRLSCAASGFTFGSYAMTWVRQAPGKGLEWVSAISGSGGNTFYADSVKGRFTISRDNSKNTLYLQMNSLRAEDTAVYYCARVSPIYAGMDYWGQGTLVTVSS VL: EIVLTQSPGTLSLSPGERATLSCRASQSVSSSYLAWYQQKPGQAPRLLIYGASSRATGIPDRFSGSGSGTDFTLTISRLEPEDFAVYYCKYYPYPPSFTFGQGTKVEIK | 0.28 | 12.7 | 0.000912 | 3.3e+06 |  |  |  |  |  | 
L3.PY/L3.KY/H2.YQ (antibody, V domains shown, IgG) VH: EVQLLESGGGLVQPGGSLRLSCAASGFTFGSYAMTWVRQAPGKGLEWVSAISYQGGNTFYADSVKGRFTISRDNSKNTLYLQMNSLRAEDTAVYYCARVSPIASGMDYWGQGTLVTVSS VL: EIVLTQSPGTLSLSPGERATLSCRASQSVSSSYLAWYQQKPGQAPRLLIYGASSRATGIPDRFSGSGSGTDFTLTISRLEPEDFAVYYCKYYPYPPSFTFGQGTKVEIK | 0.77 | 7.02 | 0.00165 | 2.14e+06 |  |  |  |  |  | 
L3.PY/L3.KY/H2.QL (antibody, V domains shown, IgG) VH: EVQLLESGGGLVQPGGSLRLSCAASGFTFGSYAMTWVRQAPGKGLEWVSAISGSGGNTFYADQLKGRFTISRDNSKNTLYLQMNSLRAEDTAVYYCARVSPIASGMDYWGQGTLVTVSS VL: EIVLTQSPGTLSLSPGERATLSCRASQSVSSSYLAWYQQKPGQAPRLLIYGASSRATGIPDRFSGSGSGTDFTLTISRLEPEDFAVYYCKYYPYPPSFTFGQGTKVEIK | 0.57 | 5.56 | 0.00208 | 3.65e+06 |  |  |  |  |  | 
COMBO_Rd4_0.6nM_C21 (antibody, V domains shown, IgG) VH: EVQLLESGGGLVQPGGSLRLSCAASGFTFSSYPMSWVRQAPGKGLEWVSAIGGSGGSLPYADSVKGRFTISRDNSKNTLYLQMNSLRAEDTAVYYCARYWPMDSWGQGTLVTVSS VL: EIVLTQSPGTLSLSPGERATLSCRASQSVSSSYLAWYQQKPGQAPRLLMYDASIRATGIPDRFSGSGSGTDFTLTISRLEPEDFAVYYCQQYQSWPLTFGQGTKVEIK |  |  |  |  | 0.084 | 0.000304 | 3.63e+06 | 0.009 | 0.000115 | 1.34e+07
A02_Rd4_0.6nM_C03 (antibody, V domains shown, IgG) VH: EVQLLESGGGLVQPGGSLRLSCAASGFTFSSYAMNWVRQAPGKGLEWVSAISDSGGSKWYADSVKGRFTISRDNSKNTLYLQMNSLRAEDTAVYYCARYWPMSLWGQGTLVTVSS VL: EIVLTQSPGTLSLSPGERATLSCRASQSVSSSYLAWYQQKPGQAPRLLMYDASIRATGIPDRFSGSGSGTDFTLTISRLEPEDFAVYYCQQYFTWPLTFGQGTKVEIK |  |  |  |  | 0.201 | 0.000426 | 2.12e+06 | 0.043 | 0.000182 | 4.27e+06
A02_Rd4_0.6nM_C13 (antibody, V domains shown, IgG) VH: EVQLLESGGGLVQPGGSLRLSCAASGFTFSSYAMNWVRQAPGKGLEWVSAISDSGGYRYYADSVKGRFTISRDNSKNTLYLQMNSLRAEDTAVYYCARYWPMSLWGQGTLVTVSS VL: EIVLTQSPGTLSLSPGERATLSCRASQSVSSSYWAWYQQKPGQAPRLLMYDASIRATGIPDRFSGSGSGTDFTLTISRLEPEDFAVYYCQQYESWPLTFGQGTKVEIK |  |  |  |  | 0.56 | 0.00128 | 2.29e+06 | 0.066 | 0.000566 | 8.53e+06
A02_Rd4_0.6nM_C09 (antibody, V domains shown, IgG) VH: EVQLLESGGGLVQPGGSLRLSCAASGFTFSSYAMNWVRQAPGKGLEWVSAISDSGGSMWYADSVKGRFTISRDNSKNTLYLQMNSLRAEDTAVYYCARYWPMSLWGQGTLVTVSS VL: EIVLTQSPGTLSLSPGERATLSCRASQSVSSSYLAWYQQKPGQAPRLLMYDASIRATGIPDRFSGSGSGTDFTLTISRLEPEDFAVYYCQQYQSWPLTFGQGTKVEIK |  |  |  |  | 0.082 | 0.000174 | 2.13e+06 | 0.018 | 9.75e-05 | 5.5e+06
A02_Rd4_0.6nM_C01 (antibody, V domains shown, IgG; also called P5AC1) VH: EVQLLESGGGLVQPGGSLRLSCAASGFTFSSYAMNWVRQAPGKGLEWVSAILSSGGSTYYADSVKGRFTISRDNSKNTLYLQMNSLRAEDTAVYYCARYWPMDIWGQGTLVTVSS VL: EIVLTQSPGTLSLSPGERATLSCRGGQSVSSSYLAWYQQKPGQAPRLLMYDASIRATGIPDRFSGSGSGTDFTLTISRLEPEDFAVYYCQQYQSWPLTFGQGTKVEIK |  |  |  |  | 0.655 | 0.00157 | 2.39e+06 | 0.193 | 0.000915 | 4.74e+06
A02_Rd4_0.6nM_C10 (antibody, V domains shown, IgG) VH: EVQLLESGGGLVQPGGSLRLSCAASGFTFSSYAMNWVRQAPGKGLEWVSAISGWGGSLPYADSVKGRFTISRDNSKNTLYLQMNSLRAEDTAVYYCARYWPMDSWGQGTLVTVSS VL: EIVLTQSPGTLSLSPGERATLSCRASQSVSAQYLAWYQQKPGQAPRLLMYDASIRATGIPDRFSGSGSGTDFTLTISRLEPEDFAVYYCQQYQRWPLTFGQGTKVEIK |  |  |  |  | 1.84 | 0.00163 | 883000 | 0.129 | 0.000296 | 2.3e+06
A02_Rd4_0.6nM_C06 (antibody, V domains shown, IgG) VH: EVQLLESGGGLVQPGGSLRLSCAASGFTFSSYAMNWVRQAPGKGLEWVSAISDSGGSAWYADSVKGRFTISRDNSKNTLYLQMNSLRAEDTAVYYCARYWPMSLWGQGTLVTVSS VL: EIVLTQSPGTLSLSPGERATLSCRASQSVSVLYLAWYQQKPGQAPRLLMYDASIRATGIPDRFSGSGSGTDFTLTISRLEPEDFAVYYCQQYQRWPLTFGQGTKVEIK |  |  |  |  | 0.058 | 0.000105 | 1.81e+06 | 0.021 | 7.37e-05 | 3.49e+06
A02_Rd4_0.6nM_C26 (antibody, V domains shown, IgG) VH: EVQLLESGGGLVQPGGSLRLSCAASGFTFSSYAMNWVRQAPGKGLEWVSAILMSGGSTYYADSVKGRFTISRDNSKNTLYLQMNSLRAEDTAVYYCARYWPMSLWGQGTLVTVSS VL: EIVLTQSPGTLSLSPGERATLSCGPSQSVSSSYLAWYQQKPGQAPRLLMYDASIRATGIPDRFSGSGSGTDFTLTISRLEPEDFAVYYCQQYQSWPLTFGQGTKVEIK |  |  |  |  | 0.941 | 0.00256 | 2.71e+06 | 0.061 | 0.000443 | 7.26e+06

Reference: patent publication US20160297884A1 (Pfizer, published 2016)
